According to publication PMC9694015:

Assays:
[1] = molecular target: bacterial chalcone isomerase (CHI) from Eubacterium ramulus (Eubacterium ramulus) (UniProt V9P0A9); assay: crystal structure; hanging drop at 293 K, 6.8 mg/mL protein in 50 mM sodium phosphate pH 6.8; reservoir ammonium sulphate (1.8 M for CHI, 1.5 M for CHI_H33A), 0.2 M NaCl, 0.1 M HEPES pH 7.5; crystals soaked 10 min with 2.5 mM (+)-taxifolin; data at 100 K; hexamer seen in the asymmetric unit
[2] = molecular target: bacterial chalcone isomerase (CHI) from Eubacterium ramulus, His33Ala variant (Eubacterium ramulus) (UniProt V9P0A9); assay: as above

| Substance | stoichiometry N [1] | stoichiometry N [2] |
| --- | --- | --- |
| bacterial chalcone isomerase (CHI) from Eubacterium ramulus (from UniProt V9P0A9 1-283) (enzyme) | 6 |  |
| bacterial chalcone isomerase (CHI) from Eubacterium ramulus, His33Ala variant (from UniProt V9P0A9 1-283) (enzyme) |  | 6 |
